Results from patent US20230212319A1, “NOVEL ANTIGEN BINDING DOMAINS AND SYNTHETIC ANTIGEN RECEPTORS INCORPORATING THE SAME” (University of Southern California, priority 2020, published 2023).

Tests used:
Assay type in all cases: cell-based
RAJI cells = test: JNG assay, co-culture with RAJI cells; conditions: co-culture with Raji; for NFAT-GFP ASSAY: Raji: JNG cells expressing construct
How it was run: (§1)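 Jurkat NFAT-GFP (JNG) cells stably transduced with SARs by lentivirus, with drug selection where the construct carried a resistance gene, then co-cultured with target cells at E:T ~1:2 for ~4–18 h. % GFP-positive cells measured by FACS against parental JNG; +/- to 5+ correspond to ~5–50% GFP-positive.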

RAJI-CD19-KO cells = test: JNG assay, co-culture with RAJI-CD19-KO cells; conditions: co-culture with Raji-CD19-KO
How it was run: as §1

RS;411 = test: JNG assay, co-culture with RS;411 cells; conditions: co-culture with RS411
How it was run: as §1

Row | Molecule | NFAT-GFP ASSAY: Raji (RAJI cells) | NFAT-GFP ASSAY: Raji-CD19-KO (RAJI-CD19-KO cells) | NFAT-GFP ASSAY: RS411 (RS;411) | NFAT-GFP ASSAY (JNG): GFP induction, Raji (RAJI cells) | NFAT-GFP ASSAY (JNG): GFP induction, Raji-CD19-KO (RAJI-CD19-KO cells) | NFAT-GFP ASSAY (JNG): GFP induction, RS411 (RS;411)
1 | 22110 (protein) MALPVTALLLPLALLLHAARPQLQLQESGPGLVKPSETLSLTCTVSGDSISSGDYYWGWIRQPPGKGLEWIGHIYYSGVTYYNPSLKSRVTISVDTSRNQFSLKLSSVTAADTAVYYCTREDSSNWRSRGQGTLVTVSSGTGGGGSGGGGSGGGGSEFDIQMTQSPSSLSASVGDRVTITCKASDHINNWLAWYQQKPGQAPKLLIYGATTLETGVPSRFSGSGSGTDYTLTISSLQPEDFATYYCQQSWNTPWTFGQGTKLEIKRLEDLKNVFPPEVAVFEPSEAEISHTQKATLVCLATGFYPDHVELSWWVNGKEVHSGVCTDPQPLKEQPALNDSRYCLSSRLRVSATFWQNPRNHFRCQVQFYGLSENDEWTQDRAKPVTQIVSAEAWGRADCGFTSESYQQGVLSATILYEILLGKATLYAVLVSALVLMAMVKRKDSRGRAKRSGSGATNFSLLKQAGDVEENPGPTSMDWIWRILFLVGAATGAHSFEQVQLQQPGAELVKPGASVKMSCKASGYAFSSYWINWMKQKPGQGLEWIGQIYPGDGDTNYNGKFKGRATLTADTSSSTAYMQLSSLTSEDSAVYFCARSITTVVGCAMDYWGQGTSVTVSSTRIQNPDPAVYQLRDSKSSDKSVCLFTDFDSQTNVSQSKDSDVYITDKCVLDMRSMDFKSNSAVAWSNKSDFACANAFNNSIIPEDTFFPSPESSCDVKLVEKSFETDTNLNFQNLSVIGFRILLLKVAGFNLLMTLRLWSSRAKRSGSGVKQTLNFDLLKLAGDVESNPGPSRGHMTEYKPTVRLATRDDVPRAVRTLAAAFADYPATRHTVDPDRHIERVTELQELFLTRVGLDIGKVWVADDGAAVAVWTTPESVEAGAVFAEIGPRMAELSGSRLAAQQQMEGLLAPHRPKEPAWFLATVGVSPDHQGKGLGSAVVLPGVEAAERAGVPAFLETSAPRNLPFYERLGFTVTADVEVPEGPRTWCMTRKPGA | 5+ (refer to approximately 5%, 10%, 20%, 30%, 40% and 50% GFP positive cells) | 4+ (refer to approximately 5%, 10%, 20%, 30%, 40% and 50% GFP positive cells) | 4+ (refer to approximately 5%, 10%, 20%, 30%, 40% and 50% GFP positive cells) | – | – | –
2 | 22125 (protein) MALPVTALLLPLALLLHAARPEVQLVESGGGLVQAGGSLRLSCAASGRTFSMGWFRQAPGKEREFVAAITYSGGSPYYADSVKGRFTISRDNAKNTVYLQMNSLKPEDTAVYYCAANPTYGSDWNAENWGQGTQVTVSSGTGGGGSGGGGSGGGGSEFDIQMTQSPSSLSASVGDRVTITCKASDHINNWLAWYQQKPGQAPKLLIYGATTLETGVPSRFSGSGSGTDYTLTISSLQPEDFATYYCQQSWNTPWTFGQGTKLEIKRLEDLKNVFPPEVAVFEPSKAEIAHTQKATLVCLATGFYPDHVELSWWVNGKEVHSGVCTDPQPLKEQPALNDSRYCLSSRLRVSATFWQNPRNHFRCQVQFYGLSENDEWTQDRAKPVTQIVSAEAWGRADCGITSASYHQGVLSATILYEILLGKATLYAVLVSALVLMAMVKRKDSRGRAKRSGSGATNFSLLKQAGDVEENPGPTSATMDWIWRILFLVGAATGAHSGPQVQLQESGGGLAQAGGSLRLSCAASGRTFSMGWFRQAPGKEREFVAAITYSGGSPYYASSVRGRFTISRDNAKNTVYLQMNSLKPEDTAVYYCAANPTYGSDWNAENWGQGTQVTVSSGSGGGGSGGGGSGGGGSFEQVQLQQPGAELVKPGASVKMSCKASGYAFSSYWINWMKQKPGQGLEWIGQIYPGDGDTNYNGKFKGRATLTADTSSSTAYMQLSSLTSEDSAVYFCARSITTVVGCAMDYWGQGTSVTVSSTRIQNPDPAVYQLRDSKSSDKSVCLFTDFDSQTNVSQSKDSDVYITDKCVLDMRSMDFKSNSAVAWSNKSDFACANAFNNSIIPEDTFFPSSDVPCDVKLVEKSFETDTNLNFQNLSVIGFRILLLKVAGFNLLMTLRLWSSRAKRSGSGVKQTLNFDLLKLAGDVESNPGPSRGHMTEYKPTVRLATRDDVPRAVRTLAAAFADYPATRHTVDPDRHIERVTELQELFLTRVGLDIGKVWVADDGAAVAVWTTPESVEAGAVFAEIGPRMAELSGSRLAAQQQMEGLLAPHRPKEPAWFLATVGVSPDHQGKGLGSAVVLPGVEAAERAGVPAFLETSAPRNLPFYERLGFTVTADVEVPEGPRTWCMTRKPGA | 4+ (refer to approximately 5%, 10%, 20%, 30%, 40% and 50% GFP positive cells) | 5+ (refer to approximately 5%, 10%, 20%, 30%, 40% and 50% GFP positive cells) | +/- (refer to approximately 5%, 10%, 20%, 30%, 40% and 50% GFP positive cells) | – | – | –
3 | 22119 (protein) MALPVTALLLPLALLLHAARPDIQMTQSPSSLSASVGDRVTITCKASDHINNWLAWYQQKPGQAPKLLIYGATTLETGVPSRFSGSGSGTDYTLTISSLQPEDFATYYCQQSWNTPWTFGQGTKLEIKRLEADVSPKPTIFLPSIAETKLQKAGTYLCLLEKFFPDVIKIHWQEKKSNTILGSQEGNTMKTNDTYMKFSWLTVPEKSLDKEHRCIVRHENNKNGVDQEIIFPPIKTDVITMDPKDNCSKDANDTLLLQLTNTSAYYMYLLLLLKSVVYFAIITCCLLRRTAFCCNGEKSRAKRSGSGATNFSLLKQAGDVEENPGPTSATMDWIWRILFLVGAATGAHSGPQVQLQESGGGLAQAGGSLRLSCAASGRTFSMGWFRQAPGKEREFVAAITYSGGSPYYASSVRGRFTISRDNAKNTVYLQMNSLKPEDTAVYYCAANPTYGSDWNAENWGQGTQVTVSSGSGGGGSGGGGSGGGGSFEQVQLQQPGAELVKPGASVKMSCKASGYAFSSYWINWMKQKPGQGLEWIGQIYPGDGDTNYNGKFKGRATLTADTSSSTAYMQLSSLTSEDSAVYFCARSITTVVGCAMDYWGQGTSVTVSSTRPHTKPSVFVMKNGTNVACLVKEFYPKDIRINLVSSKKITEFDPAIVISPSGKYNAVKLGKYEDSNSVTCSVQHDNKTVHSTDFEVKTDSTDHVKPKETENTKQPSKSCHKPKAIVHTEKVNMMSLTVLGLRMLFAKTVAVNFLLTAKLFFLRAKRSGSGVKQTLNFDLLKLAGDVESNPGPSRGHMTEYKPTVRLATRDDVPRAVRTLAAAFADYPATRHTVDPDRHIERVTELQELFLTRVGLDIGKVWVADDGAAVAVWTTPESVEAGAVFAEIGPRMAELSGSRLAAQQQMEGLLAPHRPKEPAWFLATVGVSPDHQGKGLGSAVVLPGVEAAERAGVPAFLETSAPRNLPFYERLGFTVTADVEVPEGPRTWCMTRKPGA | 4+ (refer to approximately 5%, 10%, 20%, 30%, 40% and 50% GFP positive cells) | 3+ (refer to approximately 5%, 10%, 20%, 30%, 40% and 50% GFP positive cells) | 3+ (refer to approximately 5%, 10%, 20%, 30%, 40% and 50% GFP positive cells) | – | – | –
4 | 22104 (protein) MALPVTALLLPLALLLHAARPDIQMTQSPSSLSASVGDRVTITCKASDHINNWLAWYQQKPGQAPKLLIYGATTLETGVPSRFSGSGSGTDYTLTISSLQPEDFATYYCQQSWNTPWTFGQGTKLEIKRLEDLKNVFPPEVAVFEPSEAEISHTQKATLVCLATGFYPDHVELSWWVNGKEVHSGVCTDPQPLKEQPALNDSRYCLSSRLRVSATFWQNPRNHFRCQVQFYGLSENDEWTQDRAKPVTQIVSAEAWGRADCGFTSESYQQGVLSATILYEILLGKATLYAVLVSALVLMAMVKRKDSRGRAKRSGSGATNFSLLKQAGDVEENPGPTSATMDWIWRILFLVGAATGAHSGPQVQLQESGGGLAQAGGSLRLSCAASGRTFSMGWFRQAPGKEREFVAAITYSGGSPYYASSVRGRFTISRDNAKNTVYLQMNSLKPEDTAVYYCAANPTYGSDWNAENWGQGTQVTVSSGSGGGGSGGGGSGGGGSFEQVQLQQPGAELVKPGASVKMSCKASGYAFSSYWINWMKQKPGQGLEWIGQIYPGDGDTNYNGKFKGRATLTADTSSSTAYMQLSSLTSEDSAVYFCARSITTVVGCAMDYWGQGTSVTVSSTRIQNPDPAVYQLRDSKSSDKSVCLFTDFDSQTNVSQSKDSDVYITDKCVLDMRSMDFKSNSAVAWSNKSDFACANAFNNSIIPEDTFFPSPESSCDVKLVEKSFETDTNLNFQNLSVIGFRILLLKVAGFNLLMTLRLWSSRAKRSGSGVKQTLNFDLLKLAGDVESNPGPSRGHMTEYKPTVRLATRDDVPRAVRTLAAAFADYPATRHTVDPDRHIERVTELQELFLTRVGLDIGKVWVADDGAAVAVWTTPESVEAGAVFAEIGPRMAELSGSRLAAQQQMEGLLAPHRPKEPAWFLATVGVSPDHQGKGLGSAVVLPGVEAAERAGVPAFLETSAPRNLPFYERLGFTVTADVEVPEGPRTWCMTRKPGA | 5+ (refer to approximately 5%, 10%, 20%, 30%, 40% and 50% GFP positive cells) | 5+ (refer to approximately 5%, 10%, 20%, 30%, 40% and 50% GFP positive cells) | 5+ (refer to approximately 5%, 10%, 20%, 30%, 40% and 50% GFP positive cells) | – | – | –
5 | CD8SP-BCMA-FHVH-93-G4S-CD19-MOR0028-scFv-hCD8TM-BBZ-T2A-PAC (protein) ACEVQLLESGGGLIQPGGSLRLSCAASGFTFSSHAMTWVRQAPGKGLEWVSAISGSGDYTHYADSVKGRFTISRDNSKNTVYLQMNSLRAEDSAVYYCAKDEDGGSLLGHRGQGTLVTVSSGTGGGGSGGGGSGGGGSEFINIYNAEPANPSEKNSPEFDIVMTQSPATLSLSPGERATLSCRSSKSLQNVNGNTYLYWFQQKPGQSPQLLIYRMSNLNSGVPDRFSGSGSGTEFTLTISSLEPEDFAVYYCMQHLEYPITFGAGTKLEIKGGGGSGGGGSGGGGSEVQLVESGGGLVKPGGSLKLSCAASGYTFTSYVMHWVRQAPGKGLEWIGYINPYNDGTKYNEKFQGRVTISSDKSISTAYMELSSLRSEDTAMYYCARGTYYYGTRVFDYWGQGTLVTVSSTRTTTPAPRPPTPAPTIASQPLSLRPEACRPAAGGAVHTRGLDFACDIYIWAPLAGTCGVLLLSLVITLYCKRGRKKLLYIFKQPFMRPVQTTQEEDGCSCRFPEEEEGGCELRVKFSRSADAPAYQQGQNQLYNELNLGRREEYDVLDKRRGRDPEMGGKPRRKNPQEGLYNELQKDKMAEAYSEIGMKGERRRGKGHDGLYQGLSTATKDTYDALHMQALPPRSSGSGEGRGSLLTCGDVEENPGPHMTEYKPTVRLATRDDVPRAVRTLAAAFADYPATRHTVDPDRHIERVTELQELFLTRVGLDIGKVWVADDGAAVAVWTTPESVEAGAVFAEIGPRMAELSGSRLAAQQQMEGLLAPHRPKEPAWFLATVGVSPDHQGKGLGSAVVLPGVEAAERAGVPAFLETSAPRNLPFYERLGFTVTADVEVPEGPRTWCMTRKPGA | – | – | – | 4+ (refer to approximately 5%, 10%, 20%, 30%, 40% and 50% GFP positive cells) | 3+ (refer to approximately 5%, 10%, 20%, 30%, 40% and 50% GFP positive cells) | 5+ (refer to approximately 5%, 10%, 20%, 30%, 40% and 50% GFP positive cells)
